T1: pig TF ECD-His (TF-His) protein (pig (Sus scrofa))
T1 construct: also called pig TF-His; pTF
T1 chain: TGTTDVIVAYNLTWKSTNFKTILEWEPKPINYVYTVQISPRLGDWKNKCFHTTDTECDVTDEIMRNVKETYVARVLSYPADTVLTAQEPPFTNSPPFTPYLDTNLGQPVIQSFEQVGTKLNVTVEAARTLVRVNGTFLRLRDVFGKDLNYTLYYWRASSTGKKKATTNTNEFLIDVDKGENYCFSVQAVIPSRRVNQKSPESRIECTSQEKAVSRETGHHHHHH


How the values were obtained:
human Tissue Factor (TF) [1] = molecular target: T2, human Tissue Factor (TF) (human, UniProt P13726 33-295); assay: flow cytometry, MDA-MB-231 cells; competitor 20 nM FVII-Fc-Alexa488; antibody at 28 nM
T2 construct: also called hTF; CD142
Method: (§1) After another 1 hr incubation on ice, cells were washed, stained with a viability dye, and analyzed by flow cytometry. The Alexa488 fluorescence data from viable cells was summarized using median fluorescence intensity.

human Tissue Factor (TF) [2] = molecular target: T2, human Tissue Factor (TF); assay: flow cytometry, MDA-MB-231 cells; competitor 20 nM FVII-Fc-Alexa488; antibody at 250 nM
Method: as §1

human Tissue Factor (TF) [3] = molecular target: T2, human Tissue Factor (TF); assay: cell-based or functional assay
human Tissue Factor (TF) [4] = molecular target: T2, human Tissue Factor (TF); assay: cell-based or functional assay; remark: listed apart in the source
human Tissue Factor (TF) [5] = molecular target: T2, human Tissue Factor (TF); assay: flow cytometry, MDA-MB-231 cells; competitor 20 nM FVII-Fc-Alexa488; antibody at 9.25 nM
Method: as §1

human Tissue Factor (TF) [6] = molecular target: T2, human Tissue Factor (TF); assay: flow cytometry, MDA-MB-231 cells; competitor 20 nM FVII-Fc-Alexa488; antibody at 83 nM
Method: as §1

[7] = molecular target: T3, human Tissue Factor (hTF) (human, UniProt P13726 33-295); assay: cell-based or functional assay
[8] = molecular target: T4, human Tissue Factor on human TF-positive cells (human, UniProt P13726 33-295); assay: flow cytometry, titration of the MC-vc-PAB-MMAE ADC on HCT-116 cells (human TF), 4-parameter fit of MFI
T4 construct: also called hTF; CD142

[9] = molecular target: T3, human Tissue Factor (hTF); assay: cell-based or functional assay; remark: listed apart in the source
human Tissue Factor (TF) [10] = molecular target: T2, human Tissue Factor (TF); assay: flow cytometry, A431 cells; antibody at 100 nM; competitor 20 nM 43Ea-Alexa488
Method: as §1

human Tissue Factor (TF) [11] = molecular target: T2, human Tissue Factor (TF); assay: flow cytometry, A431 cells; antibody at 100 nM; competitor 20 nM 25A-Alexa488
Method: as §1

[12] = molecular target: T1, pig TF ECD-His (TF-His) protein; assay: Biacore; antibody captured by anti-human IgG on CM5 chip, titration of pig TF-His, 1:1 model
Method: The ability of certain antibodies was tested for binding to pig TF. For pig TF Biacore-based measurements, a given anti-TF antibody was captured by an anti-human IgG antibody covalently coupled to a CM5 chip (GE Healthcare Bio-Sciences). Association between the anti-TF antibodies and a five-point three-fold titration of pig TF-His starting at 100 nM was measured for 180 to 240 sec. Subsequently, dissociation between the anti-TF antibody and TF-His was measured for 1800 sec. Kinetic data was analyzed and fitted globally using a 1:1 binding model.

[13] = molecular target: T5, rabbit TF ECD-His (TF-His) protein (rabbit (Oryctolagus cuniculus), UniProt P24055 33-250); assay: Biacore; antibody captured by anti-human IgG on CM5 chip, titration of rabbit TF-His, 1:1 model
T5 construct: also called rabbit TF-His
T5 sequence (P24055 other isoform, or with tags, fused parts or gaps): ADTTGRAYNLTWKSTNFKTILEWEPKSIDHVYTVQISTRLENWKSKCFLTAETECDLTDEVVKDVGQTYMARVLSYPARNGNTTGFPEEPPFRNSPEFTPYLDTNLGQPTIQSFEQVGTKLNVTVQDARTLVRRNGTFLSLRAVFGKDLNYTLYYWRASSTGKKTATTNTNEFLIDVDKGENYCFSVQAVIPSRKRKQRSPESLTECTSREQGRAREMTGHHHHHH
Method: The ability of certain antibodies was tested for binding to rabbit TF. For rabbit TF Biacore-based measurements, a given anti-TF antibody was captured by an anti-human IgG antibody covalently coupled to a CM5 chip (GE Healthcare Bio-Sciences). Association between the anti-TF antibodies and a five-point three-fold titration of rabbit TF-His starting at 100 nM was measured for 180 to 240 sec. Subsequently, dissociation between the anti-TF antibody and TF-His was measured for 1800 sec. Kinetic data was analyzed and fitted globally using a 1:1 binding model.

| Binder | % FVIIa (human Tissue Factor (TF) [1]) | % FVIIa (human Tissue Factor (TF) [2]) | % IL8 at 2.56 nM antibody (human Tissue Factor (TF) [3]) | % IL8 at 6.4 nM antibody (human Tissue Factor (TF) [3]) | % IL8 at 16 nM antibody (human Tissue Factor (TF) [3]) | % IL8 at 40 nM antibody (human Tissue Factor (TF) [3]) | % IL8 at 100 nM antibody (human Tissue Factor (TF) [3]) | % GM-CSF at 2.56 nM antibody (human Tissue Factor (TF) [4]) | % GM-CSF at 6.4 nM antibody (human Tissue Factor (TF) [4]) | % GM-CSF at 16 nM antibody (human Tissue Factor (TF) [4]) | % GM-CSF at 40 nM antibody (human Tissue Factor (TF) [4]) | % GM-CSF at 100 nM antibody (human Tissue Factor (TF) [4]) | % FVIIa (human Tissue Factor (TF) [5]) | % FVIIa (human Tissue Factor (TF) [6]) | IC50, cell viability of A431 cells, Primary ADC, Continuous (FIG. 20A) [7] | IC50, cell viability of HPAF-II cells, Primary ADC, Continuous (FIG. 22E) [7] | IC50, cell viability of MDA-MB-231 cells, Primary ADC, Continuous (FIG. 22D) [7] | EC50 [8] | IC50, cell viability of A431 cells, Primary ADC, 4 hr, followed by washout (FIG. 20B) [9] | IC50, cell viability of A431 cells, Primary ADC, 4 hr, followed by washout, absence of FVIIa (FIG. 21A) [9] | other results |
| --- | --- | --- | --- | --- | --- | --- | --- | --- | --- | --- | --- | --- | --- | --- | --- | --- | --- | --- | --- | --- | --- |
| 39A (antibody, human IgG1, V domains shown, Human IgG1; also called antibody designated 39A) VH: QVQLVQSGAEVKKPGSSVKVSCKASGGTFSSNAIGWVRQAPGQGLEWMGSIIPIIGFANYAQKFQGRVTITADESTSTAYMELSSLRSEDTAVYYCARDSGYYYGASSFGMDVWGQGTTVTVSS VL: EIVMTQSPATLSVSPGERATLSCRASQSVSSNLAWYQQKPGQAPRLLIYGASTRATGIPARFSGSGSGTEFTLTISSLQSEDFAVYYCEQYNNLPLTFGGGTKVEIK | 2% | 2% | 52% | 6% | 2% | 2% | 3% | 42% | 8% | 5% | 5% | 7% | 2% | 2% | – | – | – | – | – | – | – |
| anti-TF antibody 39A conjugated to MC-vc-PAB-MMAE (antibody, IgG1, V domains shown, MC-vc-PAB-MMAE on cysteines of the partially reduced antibody (chain and positions not stated), DAR 3-4, Antibody-drug conjugate (primary ADC) of the IgG1 antibody; also called 39A ADC) VH: QVQLVQSGAEVKKPGSSVKVSCKASGGTFSSNAIGWVRQAPGQGLEWMGSIIPIIGFANYAQKFQGRVTITADESTSTAYMELSSLRSEDTAVYYCARDSGYYYGASSFGMDVWGQGTTVTVSS VL: EIVMTQSPATLSVSPGERATLSCRASQSVSSNLAWYQQKPGQAPRLLIYGASTRATGIPARFSGSGSGTEFTLTISSLQSEDFAVYYCEQYNNLPLTFGGGTKVEIK | – | – | – | – | – | – | – | – | – | – | – | – | – | – | 0.05 nM | 0.04 nM | 0.05 nM | 0.1 nM | 0.12 nM | 0.09 nM | – |
| 1F (antibody, human IgG1, V domains shown, Human IgG1; also called antibody designated 1F) VH: EVQLLESGGGLVQPGGSLRLSCAASGFTFSDYAMGWVRQAPGKGLEWVSTISGSGGLTYYADSVKGRFTISRDNSKNTLYLQMNSLRAEDTAVYYCAKAPYGYYMDVWGKGTTVTVSS VL: not shown | 7% | 6% | 18% | 3% | 2% | 2% | 2% | 27% | 8% | 6% | 6% | 6% | 7% | 7% | – | – | – | – | – | – | % 43Ea binding (human Tissue Factor (TF) [10]): 77%; % 25A binding (human Tissue Factor (TF) [11]): 95% |
| anti-TF antibody 29E conjugated to MC-vc-PAB-MMAE (antibody, IgG1, V domains shown, MC-vc-PAB-MMAE on cysteines of the partially reduced antibody (chain and positions not stated), DAR 3-4, Antibody-drug conjugate (primary ADC) of the IgG1 antibody; also called 29E ADC) VH: QVQLVESGGGVVQPGRSLRLSCAASGFTFRSYGMHWVRQAPGKGLEWVAVITYDGINKYYADSVEGRFTISRDNSKNTLYLQMNSLRAEDTAVYYCARDGVYYGVYDYWGQGTLVTVSS VL: not shown | – | – | – | – | – | – | – | – | – | – | – | – | – | – | 0.06 nM | 0.04 nM | 0.07 nM | 0.25 nM | 0.2 nM | 0.13 nM | – |
| anti-TF antibody 43D7 (antibody, human IgG1, V domains shown, Human IgG1) VH: QVQLQQWGAGLLKPSETLSLTCAVYGGSLSGYYWSWIRQPPGKGLEWIGEIGASGSTRYNPSLKSRVTISVDTSKNQFSLKLSSVTAADTAVYYCARDTPYYYEGGYYYYMDVWGKGTTVTVSS VL: EIVLTQSPGTLSLSPGERATLSCRASDSVDSSYLAWYQQKPGQAPRLLIYGAFSRANGIPDRFSGSGSGTDFTLTISRLEPEDFAVYYCQQAGVVPYTFGGGTKVEIK | – | – | – | – | – | – | – | – | – | – | – | – | – | – | – | – | – | – | – | – | IC50, cell viability of A431 cells, Secondary ADC (antibody with anti-human Fc Fab:MMAF), Continuous (FIG. 18B) [7]: 0.1 nM; Kd [12]: 8.8 nM; Kd [13]: 6.8 nM |

Source: patent US20250361322A1 (ICONIC THERAPEUTICS, published 2025)
